Test results as given in article PMC9811684 (2023).

Legend:
Assay in all cases: multimer staining
[1] = molecular target: T1, SARS-CoV-2 spike protein (SPIKE) peptide on HLA-A*23:01 (human)
T1 peptide: QYIKWPWYIW

[2] = molecular target: T2, NL63 spike protein peptide on HLA-A*24:02 (human)
T2 peptide: NYIKWPWWVW

[3] = molecular target: T3, OC43 spike protein peptide on HLA-A*24:02 (human)
T3 peptide: YYVKWPWYVW

[4] = molecular target: T4, SARS-CoV-2 spike protein (SPIKE) peptide on HLA-A*24:02 (human)
T4 peptide: QYIKWPWYIW

[5] = molecular target: T5, 229E spike protein peptide on HLA-A*24:02 (human)
T5 peptide: TYIKWPWWVW

[6] = molecular target: T6, SARS-CoV-1 spike protein peptide on HLA-A*24:02 (human)
T6 peptide: QYIKWPWYVW

[7] = molecular target: T7, HKU1 spike protein peptide on HLA-A*24:02 (human)
T7 peptide: MYVKWPWYVW

Measured: binding result

B1: TCRQYI (TCR)
alpha TRAV20*01 TRAJ32*01 CDR3: CAALNYGGATNKLIF
beta TRBV4-3*01 TRBJ2-7*01 CDR3: CASSPSGGAYEQYF
recognises: all assays above
